Assays:
[1] = Biodistribution in xenograft-bearing nude mice, PC9 tumor; assay type: in vivo, BALB/c nude mice; details: mouse, tumor (PC9), iv, 0.74 MBq, xenograft-bearing nude mice, i.v., read-out: Biodistribution, T(PC9)
Method: (§1) All animal research was performed in accordance with the Zhejiang University Institutional Animal Care and Use Committee guidelines. PC9 and PC9GR cells (2 × 10^6 cells per mice) were injected subcutaneously into the flanks of 2- to 4-week old BALB/c nude mice (left: PC9GR, right: PC9). The cells were allowed to grow 3–5 weeks until tumors were 1 ± 0.5 cm^3 in volume. Normal C57/BL6 mice (aged 6 to 8 wks old) were obtained from the Animal Center of the First Affiliated Hospital of Zhejiang University. All animals were maintained with free access to food and water and used a standard diet, bedding and environment.
(§2) The radiotracer (0.1 mL, 0.74 MBq) was injected intravenously into normal C57/BL6 mice and xenograft models as previously described (n = 4 per group per time) via the tail vein. After different time intervals (30, 60, 120 and 240 min), the mice were sacrificed by cervical dislocation, and their blood, tumors and major organs (brain, heart, lung, liver, spleen, kidney, stomach, intestine, muscle, bone and skin) were harvested and weighed. The radioactivity of each sample was measured with a γ-counter. Values are shown as the percentage of the injected dose per gram (%ID/g), which corrected for background and decay to maintain consistency.

[2] = tested on: PC9 tumor; experiment: as above; assay type: in vivo, BALB/c nude mice; details: biodistribution, tumor-bearing mice
Method: as §1, §2

[3] = In vitro stability in FBS; assay type: in vitro ADME; details: room temperature
Method: In vitro stability studies of ^99mTc-HYNIC-ADH1 were performed in FBS as well as PBS solution. A total of 50 μL of ^99mTc-HYNIC-ADH1 was mixed with 950 μL of FBS (or PBS), and its radioactivity was measured after being incubated at room temperature for 0.5, 1, 2, 4, 6 and 24 h, respectively.
For stability assessments, ^99mTc-HYNIC-ADH-1 (3.7 MBq) was incubated in PBS (pH 7.4) or FBS for 24 h. […] The radiochemical purities were 98.51%, 98.50%, 97.97%, 98.02%, 98.81%, 98.09% and 98.09% in FBS at room temperature at 0.5, 1, 2, 3, 6, 12 and 24 h, respectively.

[4] = Biodistribution in xenograft-bearing nude mice, organs; assay type: in vivo, BALB/c nude mice; details: mouse, iv, 0.74 MBq, i.v.; for tissue uptake at 0.5 h: 30 min; for tissue uptake at 1 h: 60 min; for tissue uptake at 2 h: 120 min; for tissue uptake at 4 h: 240 min
Method: as §1, §2

[5] = Biodistribution in normal mice; assay type: in vivo, C57/BL6 mice; details: for tissue uptake at 0.5 h / tissue uptake at 1 h / tissue uptake at 2 h / tissue uptake at 4 h: i.v.; for tissue uptake at 0.5 h: 30 min; for tissue uptake at 1 h: 60 min; for tissue uptake at 2 h: 120 min; for tissue uptake at 4 h: 240 min
Method: as §2

[6] = blood, read-out: Biodistribution, Blood
[7] = bone, read-out: Biodistribution, Bone
[8] = brain, read-out: Biodistribution, Brain
[9] = heart, read-out: Biodistribution, Heart
[10] = intestine, read-out: Biodistribution, Intestine
[11] = kidney, read-out: Biodistribution, Kidney
[12] = liver, read-out: Biodistribution, Liver
[13] = lung, read-out: Biodistribution, Lung
[14] = muscle, read-out: Biodistribution, Muscle
[15] = skin, read-out: Biodistribution, Skin
[16] = spleen, read-out: Biodistribution, Spleen
[17] = stomach, read-out: Biodistribution, Stomach
[18] = mouse, blood, iv, 0.74 MBq, normal C57/BL6 mice, read-out: Biodistribution, Blood
[19] = mouse, bone, iv, 0.74 MBq, normal C57/BL6 mice, read-out: Biodistribution, Bone
[20] = mouse, brain, iv, 0.74 MBq, normal C57/BL6 mice, read-out: Biodistribution, Brain
[21] = mouse, heart, iv, 0.74 MBq, normal C57/BL6 mice, read-out: Biodistribution, Heart
[22] = mouse, intestine, iv, 0.74 MBq, normal C57/BL6 mice, read-out: Biodistribution, Intestine
[23] = mouse, kidney, iv, 0.74 MBq, normal C57/BL6 mice, read-out: Biodistribution, Kidney
[24] = mouse, liver, iv, 0.74 MBq, normal C57/BL6 mice, read-out: Biodistribution, Liver
[25] = mouse, lung, iv, 0.74 MBq, normal C57/BL6 mice, read-out: Biodistribution, Lung
[26] = mouse, muscle, iv, 0.74 MBq, normal C57/BL6 mice, read-out: Biodistribution, Muscle
[27] = mouse, skin, iv, 0.74 MBq, normal C57/BL6 mice, read-out: Biodistribution, Skin
[28] = mouse, spleen, iv, 0.74 MBq, normal C57/BL6 mice, read-out: Biodistribution, Spleen
[29] = mouse, stomach, iv, 0.74 MBq, normal C57/BL6 mice, read-out: Biodistribution, Stomach

CC(=O)N[C@H]1CSSC[C@@H](C(=O)NCCNC(=O)c2ccc(NN)nc2)NC(=O)[C@H](C(C)C)NC(=O)[C@H](C)NC(=O)[C@H](Cc2c[nH]cn2)NC1=O [^99mTc-HYNIC-ADH-1, metal not drawn]
tissue uptake at 0.5 h ([1]; 30 min): 0.99 ± 0.15 %ID/g | tissue uptake at 1 h ([1]; 60 min): 0.91 ± 0.03 %ID/g | tissue uptake at 2 h ([1]; 120 min): 0.79 ± 0.06 %ID/g | tissue uptake at 4 h ([1]; 240 min): 0.64 ± 0.16 %ID/g | T/NT PC9/Kidney ([2]; 30 min): 0.27 ± 0.06 | T/NT PC9/Liver ([2]; 30 min): 1.36 ± 0.15 | T/NT PC9/Muscle ([2]; 30 min): 1.97 ± 0.21 | T/NT PC9/Kidney ([2]; 1 h): 0.27 ± 0.03 | T/NT PC9/Liver ([2]; 1 h): 1.58 ± 0.06 | T/NT PC9/Muscle ([2]; 1 h): 2.59 ± 0.34 | T/NT PC9/Kidney ([2]; 2 h): 0.26 ± 0.06 | T/NT PC9/Liver ([2]; 2 h): 1.41 ± 0.21 | T/NT PC9/Muscle ([2]; 2 h): 3.36 ± 0.08 | T/NT PC9/Kidney ([2]; 4 h): 0.25 ± 0.02 | T/NT PC9/Liver ([2]; 4 h): 1.01 ± 0.31 | T/NT PC9/Muscle ([2]; 4 h): 2.78 ± 0.28 | radiochemical purity ([3]; 0.5 h): 98.51% | radiochemical purity ([3]; 1 h): 98.50% | radiochemical purity ([3]; 2 h): 97.97% | radiochemical purity ([3]; 3 h): 98.02% | radiochemical purity ([3]; 6 h): 98.81% | radiochemical purity ([3]; 12 h): 98.09% | tissue uptake at 0.5 h [4, 6]: 1.35 ± 0.18 %ID/g | tissue uptake at 1 h [4, 6]: 0.84 ± 0.03 %ID/g | tissue uptake at 2 h [4, 6]: 0.49 ± 0.05 %ID/g | tissue uptake at 4 h [4, 6]: 0.48 ± 0.2 %ID/g | tissue uptake at 0.5 h [4, 7]: 0.46 ± 0.03 %ID/g | tissue uptake at 1 h [4, 7]: 0.37 ± 0.04 %ID/g | tissue uptake at 2 h [4, 7]: 0.26 ± 0.04 %ID/g | tissue uptake at 4 h [4, 7]: 0.21 ± 0.01 %ID/g | tissue uptake at 0.5 h [4, 8]: 0.05 ± 0.01 %ID/g | tissue uptake at 1 h [4, 8]: 0.07 ± 0.01 %ID/g | tissue uptake at 2 h [4, 8]: 0.05 %ID/g | tissue uptake at 4 h [4, 8]: 0.03 %ID/g | tissue uptake at 0.5 h [4, 9]: 0.57 ± 0.03 %ID/g | tissue uptake at 1 h [4, 9]: 0.42 ± 0.08 %ID/g | tissue uptake at 2 h [4, 9]: 0.28 ± 0.01 %ID/g | tissue uptake at 4 h [4, 9]: 0.23 ± 0.01 %ID/g | tissue uptake at 0.5 h [4, 10]: 0.43 ± 0.03 %ID/g | tissue uptake at 1 h [4, 10]: 1.38 ± 1.01 %ID/g | tissue uptake at 2 h [4, 10]: 0.58 ± 0.12 %ID/g | tissue uptake at 4 h [4, 10]: 0.88 ± 0.38 %ID/g | tissue uptake at 0.5 h [4, 11]: 3.77 ± 1 %ID/g | tissue uptake at 1 h [4, 11]: 2.85 ± 0.54 %ID/g | tissue uptake at 2 h [4, 11]: 3.13 ± 0.7 %ID/g | tissue uptake at 4 h [4, 11]: 3.13 ± 0.54 %ID/g | tissue uptake at 0.5 h [4, 12]: 0.76 ± 0.06 %ID/g | tissue uptake at 1 h [4, 12]: 0.66 ± 0.06 %ID/g | tissue uptake at 2 h [4, 12]: 0.59 ± 0.01 %ID/g | tissue uptake at 4 h [4, 12]: 0.55 ± 0.1 %ID/g | tissue uptake at 0.5 h [4, 13]: 1.5 ± 0.04 %ID/g | tissue uptake at 1 h [4, 13]: 1.2 ± 0.16 %ID/g | tissue uptake at 2 h [4, 13]: 0.68 ± 0.11 %ID/g | tissue uptake at 4 h [4, 13]: 0.56 ± 0.08 %ID/g | tissue uptake at 0.5 h [4, 14]: 0.5 ± 0.47 %ID/g | tissue uptake at 1 h [4, 14]: 0.47 ± 0.1 %ID/g | tissue uptake at 2 h [4, 14]: 0.24 ± 0.01 %ID/g | tissue uptake at 4 h [4, 14]: 0.25 ± 0.04 %ID/g | tissue uptake at 0.5 h [4, 15]: 1.22 ± 0.05 %ID/g | tissue uptake at 1 h [4, 15]: 1.33 ± 0.33 %ID/g | tissue uptake at 2 h [4, 15]: 1.21 ± 0.44 %ID/g | tissue uptake at 4 h [4, 15]: 1.73 ± 0.08 %ID/g | tissue uptake at 0.5 h [4, 16]: 0.35 ± 0.03 %ID/g | tissue uptake at 1 h [4, 16]: 0.27 ± 0.02 %ID/g | tissue uptake at 2 h [4, 16]: 0.22 ± 0.02 %ID/g | tissue uptake at 4 h [4, 16]: 0.2 ± 0.01 %ID/g | tissue uptake at 0.5 h [4, 17]: 1.16 ± 0.18 %ID/g | tissue uptake at 1 h [4, 17]: 0.78 ± 0.32 %ID/g | tissue uptake at 2 h [4, 17]: 0.73 ± 0.31 %ID/g | tissue uptake at 4 h [4, 17]: 0.69 ± 0.29 %ID/g | crossing of the blood–brain barrier ([5]; from biodistribution: no obvious distribution in the brain): could not cross the blood–brain barrier | tissue uptake at 0.5 h [5, 18]: 3.31 ± 0.37 %ID/g | tissue uptake at 1 h [5, 18]: 1.23 ± 0.07 %ID/g | tissue uptake at 2 h [5, 18]: 0.84 ± 0.19 %ID/g | tissue uptake at 4 h [5, 18]: 0.58 ± 0.08 %ID/g | tissue uptake at 0.5 h [5, 19]: 1.45 ± 0.11 %ID/g | tissue uptake at 1 h [5, 19]: 0.61 ± 0.14 %ID/g | tissue uptake at 2 h [5, 19]: 0.58 ± 0.3 %ID/g | tissue uptake at 4 h [5, 19]: 0.44 ± 0.15 %ID/g | tissue uptake at 0.5 h [5, 20]: 0.18 ± 0.05 %ID/g | tissue uptake at 1 h [5, 20]: 0.09 ± 0.02 %ID/g | tissue uptake at 2 h [5, 20]: 0.1 ± 0.02 %ID/g | tissue uptake at 4 h [5, 20]: 0.08 ± 0.05 %ID/g | tissue uptake at 0.5 h [5, 21]: 1.71 ± 0.3 %ID/g | tissue uptake at 1 h [5, 21]: 0.49 ± 0.29 %ID/g | tissue uptake at 2 h [5, 21]: 0.43 ± 0.07 %ID/g | tissue uptake at 4 h [5, 21]: 0.32 ± 0.04 %ID/g | tissue uptake at 0.5 h [5, 22]: 2.96 ± 0.3 %ID/g | tissue uptake at 1 h [5, 22]: 2.14 ± 0.43 %ID/g | tissue uptake at 2 h [5, 22]: 1.78 ± 0.2 %ID/g | tissue uptake at 4 h [5, 22]: 1.26 ± 0.33 %ID/g | tissue uptake at 5 min ([5]; mouse, kidney, iv, 0.74 MBq, normal C57/BL6 mice, 5 min): 22.1 ± 1.15 %ID/g | tissue uptake at 0.25 h ([5]; mouse, kidney, iv, 0.74 MBq, normal C57/BL6 mice, 15 min): 12 ± 0.73 %ID/g | tissue uptake at 0.5 h [5, 23]: 12.1 ± 0.47 %ID/g | tissue uptake at 1 h [5, 23]: 9.01 ± 0.76 %ID/g | tissue uptake at 2 h [5, 23]: 6.46 ± 0.3 %ID/g | tissue uptake at 4 h [5, 23]: 6.16 ± 0.51 %ID/g | tissue uptake at 0.5 h [5, 24]: 1.95 ± 0.17 %ID/g | tissue uptake at 1 h [5, 24]: 1.06 ± 0.2 %ID/g | tissue uptake at 2 h [5, 24]: 0.86 ± 0.15 %ID/g | tissue uptake at 4 h [5, 24]: 0.68 ± 0.12 %ID/g | tissue uptake at 0.5 h [5, 25]: 3.83 ± 0.12 %ID/g | tissue uptake at 1 h [5, 25]: 1.7 ± 0.14 %ID/g | tissue uptake at 2 h [5, 25]: 1.54 ± 0.56 %ID/g | tissue uptake at 4 h [5, 25]: 1.08 ± 0.27 %ID/g | tissue uptake at 0.5 h [5, 26]: 1.55 ± 0.8 %ID/g | tissue uptake at 1 h [5, 26]: 0.44 ± 0.08 %ID/g | tissue uptake at 2 h [5, 26]: 0.52 ± 0.29 %ID/g | tissue uptake at 4 h [5, 26]: 0.42 ± 0.21 %ID/g | tissue uptake at 0.5 h [5, 27]: 3.45 ± 0.44 %ID/g | tissue uptake at 1 h [5, 27]: 1.9 ± 0.58 %ID/g | tissue uptake at 2 h [5, 27]: 1.69 ± 0.4 %ID/g | tissue uptake at 4 h [5, 27]: 1.05 ± 0.18 %ID/g | tissue uptake at 0.5 h [5, 28]: 1.25 ± 0.1 %ID/g | tissue uptake at 1 h [5, 28]: 0.73 ± 0.24 %ID/g | tissue uptake at 2 h [5, 28]: 0.53 ± 0.12 %ID/g | tissue uptake at 4 h [5, 28]: 0.45 ± 0.11 %ID/g | tissue uptake at 0.5 h [5, 29]: 2.24 ± 0.42 %ID/g | tissue uptake at 1 h [5, 29]: 0.94 ± 0.23 %ID/g | tissue uptake at 2 h [5, 29]: 0.66 ± 0.09 %ID/g | tissue uptake at 4 h [5, 29]: 1.28 ± 0.43 %ID/g
